Measurements as given in the supplement of paper PMC12764529.
± gives the half width of the 95% confidence interval.

Columns and labels:
[1] = folding stability dG unfold from trypsin proteolysis; higher = more stable
Experimental: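 Folding stability of de novo designed mini-proteins (<80 aa, no Cys; designed by TrROS, TrMRF, ProteinMPNN and the joint model) was measured by cDNA display proteolysis with trypsin and chymotrypsin. Each protease was used at 11 concentrations in a threefold dilution series plus a no-protease condition. K50 was inferred by Bayesian fitting of sequencing counts, and dG unfold was derived against a sequence-predicted unfolded-state K50 (Tsuboyama et al. method). Sequences shown include variable-length N-terminal GS-type padding (SAGGSAGG...) inside a display construct carrying a PA tag. Rows were kept only if the AF2 dimer inter-PAE was >15, to exclude likely homo-oligomers.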

[2] = folding stability dG unfold (combined trypsin and chymotrypsin); higher = more stable
Method in brief: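 Bayesian fitting of sequencing counts gave K50 for each design. Unfolding free energy followed by setting this against a sequence-predicted unfolded-state K50 and a shared folded-state K50, either per protease or with trypsin and chymotrypsin combined. The designs, under 80 residues and lacking cysteine, were digested in a PA-tagged cDNA display format at 11 threefold-diluted protease concentrations and without protease, and only those with AlphaFold2 dimer inter-PAE above 15 were kept.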

Row | Sequence | folding stability dG unfold [1] [kcal/mol] | folding stability dG unfold [2] [kcal/mol]
1 | SAGGSAGGSMVYVVKVEIPETGEEYEFLNPEDKETVEREVRELFPDPEVKAEIEEIEVEPELLSAGGSAGGS [r12_92_TrMRF] | -0.175 ± 0.15 | < -1
2 | SAGGSAGGSAGGPSAVSSSSSSRTTTVPGTGTPLRVSSTTTTLDAATGASTTTTTTSPGASAGGSAGGSAGG [r11_1029_JUSTAS] | -0.553 ± 0.13 | < -1
3 | SAGGSAGGSAGGWKTISVNELQDILREEGKPMTADDLIEDPNIKVEENPGNGMPTIEIPPSAGGSAGGSAGG [r7_180_TrROS] | -0.891 ± 0.24 | -0.77 ± 0.79
4 | SAKIPAEEIAEEIAENFGFEPVEVDEIDPDEGKIIIRFPGWQIEVEVDPEDGEIEIEMEFYDPEDGKPFSAG [r14_270_TrROS] | 0.46 ± 0.045 | -0.0386 ± 0.18
5 | SAGGSAGGSSMPLTVEELLASVGPDKTATVLVPPGTSIPANITPLGTEPEGGWRTFAIPASLVSAGGSAGGS [r12_356_JUSTAS] | -0.137 ± 0.12 | -0.971 ± 0.25
6 | SAGGSAGGSASAPADETLTAELTSPESDERYTVLVTPEGMTAVDEAGRTTPLSPAVLVSVTAPSAGGSAGGS [r20_35_JUSTAS] | 0.862 ± 0.034 | 0.0934 ± 0.075
7 | SAGGSIIIRGPSPDQAEEAARAFAKNFREQFPENPNMEIPVKVEYEDPENGQRQEYEAEIKIPYPDSAGGSA [r2_393_TrROS] | 0.0648 ± 0.16 | < -1
8 | SAGGSAGGSAGGMEGFTAVTFTTTTSSNGTRTTTVTTTTPDGTVTTTTTTTPVTPPPNTASAGGSAGGSAGG [r11_998_JUSTAS] | 0.503 ± 0.07 | 0.155 ± 0.14
9 | SAGGSAGGSAGGNKEVEIPIMIYWPDPNGKPNMHTVEIDMPNNDLPDIKDWAEDNPWTIMSAGGSAGGSAGG [r7_539_TrROS] | 0.287 ± 0.05 | -0.532 ± 0.22
10 | SAGSMTVSESTENGVRTTTVTLPSRPLTVTVTFPDGKVTATTTDPAAPEAATTTPLGTPAVETLIAELSSAG [r14_716_JUSTAS] | 0.083 ± 0.051 | -0.609 ± 0.3
11 | SAGGSAGGSAGGVVKFPDDVLIERVETLPDGTVKIKVYKRIPGKGSPVEEIEFEDPGSSSAGGSAGGSAGGS [r10_934_JUSTAS] | 0.235 ± 0.024 | < -1
12 | SAGGSAGGSAGGMNTNPKFVSEEDDKEIYREYNPSTGKETYIIYYPKPNTKKIVPPELISAGGSAGGSAGGS [r10_172_JUSTAS] | -0.634 ± 0.23 | < -1
13 | SMYRIEVVRDGKPIPREAVEAAAEAIERARGRPISPEALARELASVPNTVVTVEAYDEPGKPLGTLTFAESA [r9_1045_TrMRF] | -0.253 ± 0.17 | -0.703 ± 0.37
14 | SAGGMPEGDFWVRIRIPVPKYEMERDPNDPNDYKMEPEWKPKEIWLPVKSPEALDEFRENGFEIEPFSAGGS [r8_482_TrROS] | 0.251 ± 0.091 | -0.137 ± 0.16
15 | SAGGMEVVENPGGNLKIIEKEPEGPEFVKTTTTTIKTFKNPGGSTSSTITTTTTTVKISKSKNPELLSAGGS [r16_802_JUSTAS] | -0.742 ± 0.26 | -0.784 ± 0.3
16 | SAGGSAMEVKIIPGSKEAIINDPENGKPIPATIIEIEPIEPDKNLFKAKVKIPSNGGWKEVLVDLGSAGGSA [r15_209_TrMRF] | -1.23 ± 0.39 | < -1
17 | SAGMTITKTEEFPKGPGSVTRTTVTLPNGKVVVEETITLEDPSVTKTVTKTIEPADGTVLETTTTTVPASAG [r5_108_JUSTAS] | 0.302 ± 0.16 | -0.418 ± 0.3
18 | SAGGSAGGSASMTITLPGMSLEEAKAAAEAHPDHPVLLETPEGRLIEITPEGVVTVRPLPESAGGSAGGSAG [r3_269_JUSTAS] | -0.147 ± 0.029 | -0.937 ± 0.17
19 | SAGGSAGGSGMISKTEVERLPDGTVIERKEYPEGGLTTLKIYKVPPDGVPTLVEEKLVPEKLISAGGSAGGS [r12_695_JUSTAS] | -0.612 ± 0.17 | -0.69 ± 0.24
20 | SAGGSAGGSAPIVRLEFGPVIPLPDMSPDELKEKTAELVPEEYREKIKIVSVLDPDNPKEISAGGSAGGSAG [r3_340_TrMRF] | -0.269 ± 0.12 | < -1
21 | SAGGSAGGSAGGNEDDNVPIGEKTVVKKVPPSSPVTITETIYRRPSTGTTSTTEKVIIESAGGSAGGSAGGS [r10_6_JUSTAS] | -1.12 ± 0.42 | < -1
22 | SIERPGGEPVTLTVTVERPPGVRTTRTFTTPASELEARRGRDVTDEEIIAAVKEELAAAGDRALAVTVDRTS [r1_338_JUSTAS] | -0.807 ± 0.68 | < -1
23 | SAGGSAGGMNKIKVTTSVTTFEETVLAGNKTFTVTLLKKTTTITDPNSSKVTTITETKSPEELSSAGGSAGG [r6_752_JUSTAS] | 0.294 ± 0.27 | -0.135 ± 0.27
24 | SAGGSAGGSAGGSMYVIVTVPPGERLTFPLNPEIDVPEEEIKEKLKKELPVESIEILLPSAGGSAGGSAGGS [r4_116_JUSTAS] | -0.362 ± 0.19 | -0.813 ± 0.99

Row | Sequence | folding stability dG unfold [1] [kcal/mol] | folding stability dG unfold [2] [kcal/mol]
25 | SAGGSAGGSAGKITIHMDPEGNYMVKTPGNERQFDSPEDADELADEFLLNGLPIEIHPHPSAGGSAGGSAGG [r17_35_TrROS] | -0.753 ± 0.36 | < -1
26 | SAGGSAGGSAKKIDVEVDEPVPNGYYRATIRVPGPGKPIEVNVPGPWEDAERKAKELAKELSAGGSAGGSAG [r3_104_TrROS] | -0.964 ± 0.55 | < -1
27 | SANFDKAPPIEVKTEVSSFPADEEKIDPKTGKKSKRKRTITPVTVTKDGKTYTSTTTTYPDGSTETTTSSAG [r14_225_JUSTAS] | -0.0456 ± 0.2 | -0.249 ± 0.24
28 | SAGGSAGGSASKYVKVTVRLTPPDGTTRTVEITDPNKTVEEIIASLPSDEPVEVTEVEELPPSAGGSAGGSA [r18_32_JUSTAS] | 0.197 ± 0.18 | -0.806 ± 0.49
29 | SAGGSAGGSAGSSLPPDARYTTKVTVKTPFSKTLSLSEYQKLPPSEIKGIEIEKEVVPVESAGGSAGGSAGG [r11_899_JUSTAS] | -0.198 ± 0.44 | -0.927 ± 0.92
30 | SAGGSAGGSAGMTLEEIEELLKKEGIDPSTLGNEKIAEIIKKKNPNTTITSSPEGTGYISKSAGGSAGGSAG [r3_375_JUSTAS] | 0.27 ± 0.18 | < -1
31 | SAGGSAGGSAKPLTVDEILKNLDFPPNMEIEDIEVDQDENEGKPVISIEMYSPGQPYRPTIVSAGGSAGGSA [r18_354_TrROS] | -0.151 ± 0.042 | < -1
32 | SAGGSAGGSAGGGAMSPEPLGFKKVETKVEVVGGSPVIVVKLETPEGELELELPPDAKLSAGGSAGGSAGGS [r10_968_JUSTAS] | -0.308 ± 0.12 | < -1
33 | SAGGSAGGSAGGMPVTVEVKEEELPGGEKVITVTVTYPDPVVETLEVKKLPPVDPNNKPSAGGSAGGSAGGS [r10_684_JUSTAS] | 0.294 ± 0.1 | -0.103 ± 0.3
34 | SAGGSETITIEIEINGAKIKLTFTKNEDGTLTVTAEITLPNGKKLRVTMEFDKKTKEWKITSIEPVSAGGSA [r2_402_TrROS_Hall] | 4.37 ± 0.39 | > 6
35 | SAGGMKTTFTITHPDAEKAREALEKAVPSDLDVEPEFTPTPDGYTTTVTVPAEHPEVAAAALAAALASAGGS [r16_43_JUSTAS] | 0.0621 ± 0.09 | < -1
36 | SAGGSAGGSGNPDTPTSPVFVVIEKTTTVVPAPNGLYPKRTSVKISIPGGAAAGAEELIAELLSAGGSAGGS [r12_933_JUSTAS] | -0.2 ± 0.13 | < -1
37 | SAGGSAGGSREIKIDDFERHNGYYYITVEIKDPNNGKKRPLEIPYPPNQPNADRFAKDIADELSAGGSAGGS [r12_415_TrROS] | -0.751 ± 0.43 | < -1
38 | SAGGMSKEEARKAIENPADATYTFTITTRPSTPTPSSTTTTVTAKVTDPDAFLDAVPEGHSVTVTASSAGGS [r16_116_JUSTAS] | -0.465 ± 0.14 | < -1
39 | SAGGMMKIKITFADGTTKEIELPEDVTEVTITYDEKTGKVTITVRLKNGETKTITIPADKITKIEIESAGGS [r16_658_TrROS_Hall] | 5.39 ± 0.7 | > 6
40 | SAGGSAGGSAGGSMPYVVVVKYPDGSTVTFPPGEDINVKVSPDKKGVEVVSVVPLSELLSAGGSAGGSAGGS [r4_122_JUSTAS] | 0.179 ± 0.054 | -0.332 ± 0.2
41 | SMKLKITIPLPGNNEINIEIEIKPYFDPNTKKLYFEANIKVTFTYYIPGFDKPFSFTSEFKFRFELSDDLSA [r9_140_TrMRF] | 4.46 ± 0.16 | > 6
42 | SAGGSAGGSAGGMPELTVETEGFPDGSYRVVVTNPGTGELVAVAERPSSTSVADFAKELASAGGSAGGSAGG [r7_633_TrMRF] | -0.688 ± 0.13 | < -1
43 | SAGGSAGGSASIEVEAEPAEIEKVAEEAPEDEEVLVRDPKTGRVYLVKPDEVVLLREVPALLSAGGSAGGSA [r18_246_JUSTAS] | -0.238 ± 0.086 | -0.821 ± 0.48
44 | SAGGMYTLSEKTLPDGSKLLTVTRPDKPEEVFLPKEAENLPPETPVTTRGAGGEEVRPVAEILPPALLSAGG [r13_97_JUSTAS] | 0.257 ± 0.11 | -0.215 ± 0.18
45 | SAGGSAGGSAGGGLYNVVVTGKGEERVLPAKSPDDVKEALEEAGLEIKSIHPETGIVEAGSAGGSAGGSAGG [r7_726_TrMRF] | -0.471 ± 0.18 | < -1
46 | SAGGSAGGSAGDEKVPFFVRIIDPKNGKPVREFPVEVDPGKIKIPKELAENMPPDNVEIYSAGGSAGGSAGG [r11_725_TrROS] | -0.824 ± 0.4 | < -1
47 | SETVTIEVEIEVKLPDGSTYRVRLTVEFDKETGKITLKMTVEYNGKTYEVELSEEEIKALLDELLKKLGLSA [r9_1136_TrROS_Hall] | 4.22 ± 0.29 | > 6
